This data set concerns the molecule itself. The data set can be described thus: Western blot, HEK 293T-orf6 cells (self-association into a homotetramer). The protocol:
To assess ALDH2 tetramer formation from AAVrh.10hALDH2 directed expression of the human ALDH2 protein in vitro, HEK 293T cells were infected with the AAVrh.10hALDH2 vector or a control AAVrh.10-hα1 AT vector, and supernatant was harvested 72 hours later. Human ALDH2 tetramer formation in supernatant was evaluated by SDS-PAGE and Western analysis with an anti-HA antibody.
(Immunoblotting shows a protein as a band on a membrane.)

The results in this text go back to patent US20190160187A1 (CORNELL UNIVERSITY, published 2019).

B1: human ALDH2 with C-terminal hemagglutinin (HA) tag, expressed from the AAVrh.10hALDH2 vector (enzyme)
chain: SAAATQAVPAPNQQPEVFCNQIFINNEWHDAVSRKTFPTVNPSTGEVICQVAEGDKEDVDKAVKAARAAFQLGSPWRRMDASHRGRLLNRLADLIERDRTYLAALETLDNGKPYVISYLVDLDMVLKCLRYYAGWADKYHGKTIPIDGDFFSYTRHEPVGVCGQIIPWNFPLLMQAWKLGPALATGNVVVMKVAEQTPLTALYVANLIKEAGFPPGVVNIVPGFGPTAGAAIASHEDVDKVAFTGSTEIGRVIQVAAGSSNLKRVTLELGGKSPNIIMSDADMDWAVEQAHFALFFNQGQCCCAGSRTFVQEDIYDEFVERSVARAKSRVVGNPFDSKTEQGPQVDETQFKKILGYINTGKQEGAKLLCGGGIAADRGYFIQPTVFGDVQDGMTIAKEEIFGPVMQILKFKTIEEVVGRANNSTYGLAAAVFTKDLDKANYLSQALQAGTVWVNCYDVFGAQSPFGGYKMSGSGRELGEYGLQAYTEVKTVTVKVPQKNS
notes: also called human aldehyde dehydrogenase 2; hALDH2-HA; not shown: C-terminal hemagglutinin (HA) tag
Consider B1, for which the binding result is listed as “binds”.
